According to US20260242730A1 (POINTLOMA BIOSCIENCES, published 2026):

B1: TROP2 CAR with anti-TROP2 #PL02 scFv (VL-linker-VH) adopted from monoclonal antibody hRS7, on γδ T cells (other, not shown: small tags and cut ends)
chain: DIQLTQSPSSLSASVGDRVSITCKASQDVSIAVAWYQQKPGKAPKLLIYSASYRYTGVPDRFSGSGSGTDFTLTISSLQPEDFAVYYCQQHYITPLTFGAGTKVEIKGGGGSGGGGSGGGGSQVQLQQSGSELKKPGASVKVSCKASGYTFTNYGMNWVKQAPGQGLKWMGWINTYTGEPTYTDDFKGRFAFSLDTSVSTAYLQISSLKADDTAVYFCARGGFGSSYWYFDVWGQGSLVTVSS
notes: CAR on γδ T cells
B2: anti-PD-L1 #PD1 VHH (VHH)
VHH: DVQLQESGGGLVQAGGSLRLSCAASESIASINVMGWYRQAPGKQRELVAIITNRGTTSYPDSVKGRFTISRDNGKNTVYLQMNTLKPEDTAVYYCNAPWTDGINYWGKGTQVTVSS
B3: anti-PD-L1 #PD2 VHH (VHH)
VHH: DVQLQESGGGLVEPGGSLRLSCAASGFTFNHYGMSWVRQAPGKGLQWVSTLFTTGSSQYANSVKGRFTISRDAAENTLYLHMNNLKPEDTAVYFCAKGVGLGSERGPGTQVTVSS
B4: anti-PD-L1 #PD3 VHH (VHH)
VHH: DVQLQESGGGLVQAGDSLGLSCAASGRAFSLFEMAWYRQAPGKAREFVAAIMWRGGHTVYADSVKGRSTISSDNTKNTVYLQMNSLKPEDTAIYYCRGKVVGSDYWGQGTQVTVSS

Legend:
[1] = biological target: T1, recombinant human TROP2 protein (human, UniProt P09758 27-274); experiment: binding of TROP2 protein to binder-expressing γδ T cells
T1 chain: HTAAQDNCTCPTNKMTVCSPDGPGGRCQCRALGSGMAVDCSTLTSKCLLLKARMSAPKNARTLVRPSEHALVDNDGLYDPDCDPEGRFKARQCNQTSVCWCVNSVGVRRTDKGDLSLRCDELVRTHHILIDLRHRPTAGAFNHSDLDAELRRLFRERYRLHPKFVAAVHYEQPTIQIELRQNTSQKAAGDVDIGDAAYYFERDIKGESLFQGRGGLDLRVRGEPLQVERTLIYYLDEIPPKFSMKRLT

[2] = biological target: T2, recombinant human TROP2 protein (human, UniProt P09758 27-274); experiment: flow cytometry, titration of TROP2 protein on CAR γδ T cells
T2 sequence (looked up): T1 chain

[3] = biological target: T3, human PD-L1 (antigen of panning and phage ELISA) (human, UniProt Q9NZQ7 19-238, biotinylated (panning antigen)); experiment: phage ELISA of clones panned on biotinylated human PD-L1
T3 construct: also called biotinylated human PD-L1
T3 sequence (Q9NZQ7 19-238 limits assumed): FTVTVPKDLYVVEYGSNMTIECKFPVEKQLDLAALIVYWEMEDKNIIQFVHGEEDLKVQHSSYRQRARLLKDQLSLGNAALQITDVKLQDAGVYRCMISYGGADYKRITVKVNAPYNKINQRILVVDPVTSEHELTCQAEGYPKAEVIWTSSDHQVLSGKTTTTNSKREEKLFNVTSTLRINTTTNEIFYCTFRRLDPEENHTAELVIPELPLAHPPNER
Description: The animal boosted four times every two weeks. After confirming the serum titer against PD-L1, PBMC was isolated and used for phage display library construction. Anti-PD-L1 binders were isolated with the immunized phage display library using liquid phase Biopanning on biotinylated human PD-L1. Stringency was increased during successive rounds by decreasing antigen concentration, increasing the number and duration of washes, and/or changing the duration of selections. The panning process was repeated three to four times until the output phage enrichment was identified. The eluted phages were diluted and spread on a petri dish to grow single colonies. Individual phage clones were selected and amplified. 384 single colonies were selected and tested for specificity by ELISA. […] After sequencing the positive clones, three unique sequences were obtained based on amino acid sequences.

EC50 [1] [nM]	binding result [2]	binding result [3]	Binder
6.81	binds	–	B1
–	–	binds	B2
–	–	binds	B3
–	–	binds	B4
